The record followed here is publication PMC3822574 (Analytical biochemistry, 2013).

This experiment concerns the target T1, LCAT (Homo sapiens, UniProt P04180).
T1 sequence (P04180 25-440): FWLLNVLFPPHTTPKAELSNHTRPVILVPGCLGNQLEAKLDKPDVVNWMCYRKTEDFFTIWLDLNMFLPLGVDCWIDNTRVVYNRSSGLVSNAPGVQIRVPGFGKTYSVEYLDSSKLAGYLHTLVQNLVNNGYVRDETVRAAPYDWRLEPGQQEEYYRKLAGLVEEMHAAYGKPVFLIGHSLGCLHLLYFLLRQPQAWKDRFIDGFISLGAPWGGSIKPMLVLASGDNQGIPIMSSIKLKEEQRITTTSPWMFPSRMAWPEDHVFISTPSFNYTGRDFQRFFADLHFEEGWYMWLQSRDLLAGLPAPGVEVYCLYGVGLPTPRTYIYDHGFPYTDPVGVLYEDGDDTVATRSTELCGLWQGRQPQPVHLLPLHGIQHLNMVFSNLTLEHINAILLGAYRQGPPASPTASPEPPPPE
The experiment is described as follows: Assay of LCAT activity in plasma with HDL-mimetic substrate. It is filed as biochemical. As to conditions: rhLCAT in buffer; 2 μL with 100 μL HMS (100 μM DHE), 2 hours.

“rhLCAT: Recombinant human LCAT purified from the medium of a stably transfected HEK293F cell clone”: the “Slope of activity versus rhLCAT concentration” value turned out to be 5 nmol/µg/h.
